For experiment [1], the target named is T1, monkey Trop2 on CHO-K1 cells (monkey, UniProt A0A2K5UE71 27-323).
T1 construct: also called CHO-K1/monkey Trop2
T1 sequence: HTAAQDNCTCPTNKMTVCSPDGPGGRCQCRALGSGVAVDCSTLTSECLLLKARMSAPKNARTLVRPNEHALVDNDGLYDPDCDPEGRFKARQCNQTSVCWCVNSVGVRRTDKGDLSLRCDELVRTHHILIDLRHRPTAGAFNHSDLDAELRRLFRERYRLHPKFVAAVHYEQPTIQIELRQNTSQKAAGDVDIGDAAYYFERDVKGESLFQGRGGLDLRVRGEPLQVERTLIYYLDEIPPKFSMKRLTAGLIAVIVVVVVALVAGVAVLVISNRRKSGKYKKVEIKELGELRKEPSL
The experiment in a line: flow cytometry on CHO-K1/monkey Trop2 cells. As for the experimental part:
CHO-K1/monkey Trop2 cells (Chempartner, Shanghai, China) and CHO-K1 blast cells were each digested with 3 mL of TrypLE, and the digestion was stopped with 7 mL of the corresponding medium. […] The cell solution was centrifuged, and the cells were washed once with PBS+0.5% BSA. […] The cells were washed once with PBS+0.5% BSA. The cells were incubated at 4° C. for 1 h in the dark with 100 μL of Alexa Fluor 488 goat anti-human IgG (Life technologies, #A-11013) diluted at 1:1000, and washed twice with PBS+0.5% BSA. The cells were resuspended in 200 μL of PBS+0.5% BSA. The suspension was centrifuged at 4° C. for 5 min at 2000 rpm and tested using a FACS verse flow cytometer or NovoCyte flow cytometer (ACEA Biosciences). All procedures were performed on ice.
(In general: Flow cytometry measures light scatter and fluorescence of single cells or particles in a stream.)

Experiment [2] deals with T2, human TROP2 protein (Sino Biological, #10428-H08H) (human, UniProt P09758 27-274).
T2 construct: bought protein; also called human Trop2 protein antigen (His tag); not shown: His tag
T2 sequence (looked up): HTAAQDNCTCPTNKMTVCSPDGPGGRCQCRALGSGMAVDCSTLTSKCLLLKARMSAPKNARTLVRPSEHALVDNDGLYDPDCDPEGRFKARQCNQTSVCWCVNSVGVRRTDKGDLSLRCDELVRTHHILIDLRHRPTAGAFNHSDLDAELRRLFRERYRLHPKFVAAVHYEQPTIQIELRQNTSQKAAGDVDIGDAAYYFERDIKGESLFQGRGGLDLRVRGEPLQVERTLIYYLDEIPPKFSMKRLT
The experiment in a line: BLI, Octet RED96, AHC sensor. The procedure, abridged: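 First, 200 nM human or monkey Trop2 in PBS (pH 7.4, 0.1% BSA, 0.02% Tween 20) is captured on the sensor. Next, 40 nM antibody binds for 3 min at 30° C.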
In general terms: Biolayer interferometry detects binding as a change in optical thickness at a sensor tip.

The target in experiment [3] is T3, monkey Trop2 protein (Sino Biological, #90893-C08H) (monkey, UniProt A0A2K5UE71 27-274).
T3 construct: bought protein; also called monkey Trop2 protein antigen (His tag)
T3 sequence: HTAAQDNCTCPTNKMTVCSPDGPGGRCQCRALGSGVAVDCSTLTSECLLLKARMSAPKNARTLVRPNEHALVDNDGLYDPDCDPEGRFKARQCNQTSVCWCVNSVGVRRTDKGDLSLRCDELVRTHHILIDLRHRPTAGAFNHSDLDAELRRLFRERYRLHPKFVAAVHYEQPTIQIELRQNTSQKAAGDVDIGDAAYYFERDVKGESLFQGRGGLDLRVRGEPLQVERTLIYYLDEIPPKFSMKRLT
The experiment in a line: BLI, Octet RED96, AHC sensor. The procedure, abridged:
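Sensor loaded w/ 200 nM Trop2 (human or monkey), PBS pH 7.4 + 0.1% BSA + 0.02% Tween 20. Ab 40 nM, assoc 3 min / dissoc 5 min, 30° C. Real-time binding fit for KD, kon, koff.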

In the next experiment the target is T4, human Trop2 on cells (human, UniProt P09758 27-323).
T4 construct: whole, on cells; also called hTrop2; 293T-human Trop2 cells
T4 sequence (looked up): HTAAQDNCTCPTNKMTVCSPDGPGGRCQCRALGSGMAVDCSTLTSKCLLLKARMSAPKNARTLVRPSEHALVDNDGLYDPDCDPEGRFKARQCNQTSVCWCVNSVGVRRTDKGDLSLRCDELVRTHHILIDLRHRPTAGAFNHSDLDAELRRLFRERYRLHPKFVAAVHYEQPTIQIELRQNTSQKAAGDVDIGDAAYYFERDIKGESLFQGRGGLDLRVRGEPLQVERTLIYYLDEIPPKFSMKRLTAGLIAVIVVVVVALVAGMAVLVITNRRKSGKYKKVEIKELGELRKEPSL
The experiment is described as follows: flow cytometry on 293T-human Trop2 cells. The procedure, abridged:
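Cells at 1×10⁶/mL in PBS were incubated for 1 h, washed in PBS+0.5% BSA, then stained with Alexa Fluor 488 anti-human IgG for 1 h at 4 °C. Cell-bound fluorescence was measured by flow cytometry, with all steps on ice.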

B1: PR001139 (antibody, human IgG1, kappa, V domains shown)
VH: QVQLVESGGGVVQPGRSLRLSCAASGFTFSSFGMQWVRQGPGKGLEWVAVMWFDGSNKYYVDSVKGRFTISRDNSKNTLYLQMNSLRAEDTAVYYCARLDFSGWPLIDYWGQGTLVTVSS
VL: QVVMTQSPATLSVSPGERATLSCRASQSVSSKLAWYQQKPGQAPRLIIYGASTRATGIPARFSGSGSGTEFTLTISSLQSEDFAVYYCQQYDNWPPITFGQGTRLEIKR
notes: fully human IgG1/kappa; also called antibody No. (8)
As a reminder, the EC50 is the concentration giving half of the maximal effect. Usually Kd stands for the constant that tells how readily two partners part at equilibrium. The koff is a measure of how fast the partners let go of each other. Broadly, the kon is the second-order rate constant of association. For the molecule B1, in experiment [1], a half-maximal effect (EC50) was put at 3.33 nM and the “Maximum MFI value” is 46400 MFI. Also, in experiment [2], the dissociation constant (Kd) was 4.79 nM, the Response is 0.336, the koff was found to be 0.000426 s⁻¹ and the kon worked out at 89000 M⁻¹ s⁻¹. In experiment [3], this molecule displayed an equilibrium dissociation constant (Kd) of 7.75 nM, a Response of 0.328, an off-rate constant (koff) of 0.000528 s⁻¹ and a kon of 68100 M⁻¹ s⁻¹. For the same molecule, in the experiment with human Trop2 on cells, the concentration for a half-maximal effect (EC50) stood at 0.325 nM, the “Maximum (MFI)” value was determined as 6850 MFI and the Top % was found to be 106%.

B2: PR001165 (antibody, human IgG1, kappa, V domains shown)
VH: QVQLVESGGGVVQPGRSLRLSCEASGFTFSHYGMHWVRQAPGKGLEWVAVIWYDGIKTYYVESVKGRFTISRDNSKNTLNLQMNRLRAEDTAVYYCARDGGFGESNYYGLDVWGQGTTVTVSS
VL: DIQLTQSPSFLSASVGDRVTITCRASQGISSYLGWYQQKPGKAPKLLIYIASTLQSGVPSRFSGSGSGTEFTLTISSLQPEDFATYYCQQLNSYPYTFGQGTKLEIKR
notes: fully human IgG1/kappa; also called antibody No. (26)
On to B2, for which, in experiment [2], the Kd was < 0.001 nM, the Response came to 0.38, the “fold lower KD than the reference antibody Tab (hRS7)” value was ~10 fold and the dissociation rate constant (koff) is < 1e-07 s⁻¹. The kon in experiment [2] was 164000 M⁻¹ s⁻¹. Besides, in experiment [3], binding was characterised by a dissociation constant (Kd) of 0.26 nM, the Response came out at 0.393, the off-rate constant (koff) came out at 2.62e-05 s⁻¹ and the kon worked out at 101000 M⁻¹ s⁻¹. In the experiment with human Trop2 on cells, the half-maximal effective concentration (EC50) was found to be 0.414 nM, the “Maximum (MFI)” value was determined as 6460 MFI and the Top % was determined as 99.7%.

B3: PR001166 (antibody, human IgG1, kappa, V domains shown)
VH: QVQLQESGPGLVKPSETLSLTCAVSGYSISSGYFWAWIRQPPGKGLEWIGSIYHSGRTHYNPSLKSRVIISLDTSKNQFSLKLRSVTAADSAVYYCAREGYASGSYYWGQGTLVTVSS
VL: EIVMTQSPATLSVSPGERATLSCRSSQSVNNYLAWFQQKPGQAPRLLIYDSSTRATGIPARFSGSGSGTEFTLTISSLQSEDFAFYFCQQYENWPLTFGGGTKVEIKR
notes: fully human IgG1/kappa; also called antibody No. (27)
B3: in experiment [1], the response was half-maximal at 1.97 nM (EC50) and the “Maximum MFI value” is 51500 MFI. Further, in experiment [2], the Kd is < 0.001 nM, the Response amounted to 0.324, the off-rate (koff) was < 1e-07 s⁻¹ and the on-rate (kon) was determined as 470000 M⁻¹ s⁻¹. In experiment [3], the Kd was < 0.001 nM, the Response is 0.322, the koff is < 1e-07 s⁻¹ and the kon stood at 316000 M⁻¹ s⁻¹. Moreover, in the experiment with human Trop2 on cells, the half-maximal effective concentration (EC50) was 0.204 nM, the “Maximum (MFI)” value stood at 7050 MFI, the Top % was found to be 109% and the “fold lower EC50 than the reference antibody hRS7” value was ~3 fold.

B4: comparative example 2 antibody Tab (hRS7) (antibody, human IgG1, kappa, V domains shown)
VH: QVQLQQSGSELKKPGASVKVSCKASGYTFTNYGMNWVKQAPGQGLKWMGWINTYTGEPTYTDDFKGRFAFSLDTSVSTAYLQISSLKADDTAVYFCARGGFGSSYWYFDVWGQGSLVTVSS
VL: DIQLTQSPSSLSASVGDRVSITCKASQDVSIAVAWYQQKPGKAPKLLIYSASYRYTGVPDRFSGSGSGTDFTLTISSLQPEDFAVYYCQQHYITPLTFGAGTKVEIKR
notes: prepared on the basis of sacituzumab govitecan (ChemPartner, #T07-001); naked antibody
As for B4, in experiment [1], a half-maximal response (EC50) required 2.13 nM and the “Maximum MFI value” is 53100 MFI. In experiment [2], this molecule returned a Kd of 0.199 nM and a Response of 0.349. In experiment [3], the Kd was 0.137 nM and the Response stood at 0.322. In the experiment with human Trop2 on cells, a half-maximal response (EC50) required 0.753 nM and the “Maximum (MFI)” value is 6480 MFI.

B5: PR001130 (antibody, human IgG1, kappa, V domains shown)
VH: QVQLQESGPGLVKPSGTLSLTCAVSGDSISSHNWWSWVRQPPGKGLEWIGEIYHSGITSYNPSLKSRVTISVDKSKNQFSLKLNSVTAADTAMYYCARGSGVISYFDYWGQGTLVTVSS
VL: DIQMTQSPSTLSASVGDRVTITCRASQSIGNWLAWYQQKPGKAPKLLIYKASSLESGVPSRFSGSGSGTEFTLTISSLQPDDFATYYCQQYDSYSPITFGQGTRLEIKR
notes: fully human IgG1/kappa; also called antibody No. (2)
Turning to B5, in experiment [1], the half-maximal effective concentration (EC50) worked out at 6.26 nM and the “Maximum MFI value” was 61700 MFI. In addition, in experiment [2], the dissociation constant (Kd) is < 0.001 nM, the Response came out at 0.357, the koff was < 1e-07 s⁻¹ and the kon came out at 55200 M⁻¹ s⁻¹. In experiment [3], the Kd is < 0.001 nM, the Response turned out to be 0.315, the koff is < 1e-07 s⁻¹ and the kon is 37700 M⁻¹ s⁻¹. In addition, in the experiment with human Trop2 on cells, it took 2.06 nM to reach a half-maximal effect (EC50), the “Maximum (MFI)” value came out at 6820 MFI and the Top % came out at 105%.

B6: PR001142 (antibody, human IgG1, kappa, V domains shown)
VH: QVQLQESGPGLVKPSGTLSLTCAVSGDSISSNNWWSWVRQPPGKGLEWIGEIYPGGNPNYNPSLKSRVTISVDKSKNQFSLKLNSVTAADTAVYYCARGSGVISYFDYWGQGTLVTVSS
VL: DIQMTQSPSTLSASVGDRVTITCRASQSIGHWLAWYQQKPGKAPKLLIYKASSLESGVPSRFRGSGSGTEFTLTISSLQPDDFATYYCQQYSSYSPITFGQGSRLEIKR
notes: fully human IgG1/kappa; also called antibody No. (9)
For B6, in experiment [1], a half-maximal effect (EC50) was put at 2.1 nM and the “Maximum MFI value” is 51200 MFI. In experiment [2], this molecule had a Kd of 0.323 nM, a Response of 0.39, a koff of 8.78e-05 s⁻¹ and a kon of 272000 M⁻¹ s⁻¹. In experiment [3], the Kd amounted to 0.26 nM, the Response came out at 0.382, the koff amounted to 4.29e-05 s⁻¹ and the kon was determined as 165000 M⁻¹ s⁻¹. In addition, in the experiment with human Trop2 on cells, the EC50 worked out at 0.23 nM, the “Maximum (MFI)” value amounted to 6510 MFI, the Top % worked out at 101% and the “fold lower EC50 than the reference antibody hRS7” value was ~3 fold.

B7: PR001128 (antibody, human IgG1, kappa, V domains shown)
VH: QVQLQESGPGLVKPSGTLSLTCAVSGGSISSSNWWSWVRQPPGKGLEWIGEIFHSGTTYYNPSLKSRVTILVDKSKNQFSLKLSSVTAADTAVYYCARDNTKSWDHFDHWGQGTLVTVSS
VL: EIVLTQSPATLSLSPGERATLSCRASQSVGSYLAWYQQKPGQAPSLLIYDASNRATGIPARFSGSGSGTDFTLTISSLEPEDFAVYYCQQRTNWYTFGQGTKLEIKR
notes: fully human IgG1/kappa; also called antibody No. (1)
On to B7, for which, in experiment [1], the midpoint of the response, the EC50, lay at 2.57 nM and the “Maximum MFI value” came out at 53200 MFI. In experiment [2], the Kd is < 0.001 nM, the Response amounted to 0.402, the off-rate (koff) is < 1e-07 s⁻¹ and the on-rate (kon) was found to be 130000 M⁻¹ s⁻¹. Moreover, in experiment [3], the Kd is < 0.001 nM, the Response came to 0.384, the koff is < 1e-07 s⁻¹ and the kon came out at 83500 M⁻¹ s⁻¹. For the same molecule, in the experiment with human Trop2 on cells, a half-maximal response (EC50) required 0.466 nM, the “Maximum (MFI)” value came out at 6850 MFI and the Top % was 106%.

Source of the values: US20240067748A1 (NONA BIOSCIENCES SUZHOU, published 2024).
